Targets include IL16_1, Q14005; Inadl_3, Q8NI35; MAGI2_5, Q86UL8; MAST1, Q9Y2H9; NHERF2_2, Q15599; NOS1, P29475; PARD3_3, Q8TEW0; SCRIB_2, Q14160; ARHGEF12, Q9NZN5-2; DLG2_2, Q15700; Inadl_4, Q8NI35; Inadl_9, Q8NI35; NHERF4_1, Q86UT5-2; TJP1_2, Q07157.
Holding throughout (test): holdup assay
Set-up in all cases: key: below the threshold = too weak to quantify, mostly under pKd 3.1 to 4
Settings in all cases: plain residues with an end cap or a label only (N-terminal biotin on a linker: ado-ado)

Another experiment concerns the target T1, HTRA3, P83110.
T1 sequence (P83110 354-453, limits assumed, looked up): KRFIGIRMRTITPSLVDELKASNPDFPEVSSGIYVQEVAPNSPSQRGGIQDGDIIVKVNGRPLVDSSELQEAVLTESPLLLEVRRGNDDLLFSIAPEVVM

The target of a further experiment is T2, HTRA4, P83105.
T2 sequence (P83105 378-476, limits assumed, looked up): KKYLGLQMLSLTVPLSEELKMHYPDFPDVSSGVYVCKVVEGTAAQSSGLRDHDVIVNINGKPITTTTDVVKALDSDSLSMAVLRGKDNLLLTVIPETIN

A further experiment deals with T3, LNX2_3, Q8N448.
T3 sequence (Q8N448 463-564, limits assumed, looked up): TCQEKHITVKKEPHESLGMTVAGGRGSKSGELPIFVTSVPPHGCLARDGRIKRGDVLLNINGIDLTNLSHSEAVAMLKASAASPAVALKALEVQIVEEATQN

A further experiment has as its target T4, MPP7, Q5T2T1.
T4 sequence (Q5T2T1 134-230, limits assumed, looked up): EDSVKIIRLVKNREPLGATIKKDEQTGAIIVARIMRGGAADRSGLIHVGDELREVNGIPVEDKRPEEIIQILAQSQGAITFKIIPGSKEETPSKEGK

Another experiment has as its target T5, PARD3B_1, Q8TEW8.
T5 sequence (Q8TEW8 196-299, limits assumed, looked up): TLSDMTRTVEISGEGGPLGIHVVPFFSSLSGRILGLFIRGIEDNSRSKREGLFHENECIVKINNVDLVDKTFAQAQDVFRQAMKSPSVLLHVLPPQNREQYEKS

In a further experiment the target is T6, PCLO, Q9Y6V0.
T6 sequence (Q9Y6V0 4491-4600, limits assumed, looked up): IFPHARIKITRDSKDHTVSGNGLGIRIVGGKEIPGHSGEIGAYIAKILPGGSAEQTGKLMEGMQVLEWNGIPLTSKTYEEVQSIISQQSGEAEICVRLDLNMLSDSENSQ

The target in the next experiment is T7, SIPA1L2, Q9P2F8.
T7 sequence (Q9P2F8 945-1036, limits assumed, looked up): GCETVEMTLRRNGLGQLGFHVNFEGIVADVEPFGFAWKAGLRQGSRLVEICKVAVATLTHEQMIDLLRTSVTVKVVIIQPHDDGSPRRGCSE

Another experiment has as its target T8, SNTG2, Q9NY99.
T8 sequence (Q9NY99 68-166, limits assumed, looked up): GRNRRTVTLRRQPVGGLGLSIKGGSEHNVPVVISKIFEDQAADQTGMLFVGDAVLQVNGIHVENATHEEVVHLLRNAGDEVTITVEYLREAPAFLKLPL

The target of another experiment is T9, SYNJ2BP, P57105.
T9 sequence (P57105 8-110, limits assumed, looked up): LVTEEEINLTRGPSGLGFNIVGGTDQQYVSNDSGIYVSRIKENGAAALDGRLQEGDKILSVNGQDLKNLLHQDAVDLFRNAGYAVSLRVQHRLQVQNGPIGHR

In the next experiment the target is T10, ARHGEF11, O15085.
T10 sequence (O15085 42-136, limits assumed, looked up): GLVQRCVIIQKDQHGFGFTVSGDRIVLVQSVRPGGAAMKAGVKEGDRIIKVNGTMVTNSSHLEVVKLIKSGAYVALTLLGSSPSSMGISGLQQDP

In the next experiment the target is T11, SNTG1, Q9NSN8.
T11 sequence (Q9NSN8 52-150, limits assumed, looked up): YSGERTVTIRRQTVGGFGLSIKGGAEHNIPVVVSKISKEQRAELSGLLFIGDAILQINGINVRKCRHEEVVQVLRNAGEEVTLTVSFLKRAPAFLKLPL

Another experiment addresses T12, SNTA1, Q13424.
T12 sequence (Q13424 82-180, limits assumed, looked up): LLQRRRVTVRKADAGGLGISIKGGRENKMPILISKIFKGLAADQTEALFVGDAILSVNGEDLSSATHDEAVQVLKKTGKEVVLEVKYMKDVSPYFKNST

Sequence of SCRIB_2, Q14160 (Q14160 857-960): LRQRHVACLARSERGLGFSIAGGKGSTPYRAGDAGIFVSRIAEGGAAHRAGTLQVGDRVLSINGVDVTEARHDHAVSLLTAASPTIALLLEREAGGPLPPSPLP
Sequence of MAST1, Q9Y2H9 (Q9Y2H9 962-1065): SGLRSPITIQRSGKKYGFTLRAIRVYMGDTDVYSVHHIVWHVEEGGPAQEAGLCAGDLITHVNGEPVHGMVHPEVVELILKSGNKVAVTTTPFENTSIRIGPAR
Sequence of PARD3_3, Q8TEW0 (Q8TEW0 582-685): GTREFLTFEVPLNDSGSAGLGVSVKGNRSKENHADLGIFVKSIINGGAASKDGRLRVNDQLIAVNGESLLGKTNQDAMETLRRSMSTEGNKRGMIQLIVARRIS
Sequence of IL16_1, Q14005 (Q14005 210-306): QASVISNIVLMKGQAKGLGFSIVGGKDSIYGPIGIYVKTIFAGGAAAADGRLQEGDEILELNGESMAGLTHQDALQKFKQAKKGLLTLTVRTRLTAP
Sequence of NHERF2_2, Q15599 (Q15599 142-238): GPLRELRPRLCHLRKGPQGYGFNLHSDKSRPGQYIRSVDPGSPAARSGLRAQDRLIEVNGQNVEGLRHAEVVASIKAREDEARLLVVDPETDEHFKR
Sequence of NOS1, P29475 (P29475 9-101): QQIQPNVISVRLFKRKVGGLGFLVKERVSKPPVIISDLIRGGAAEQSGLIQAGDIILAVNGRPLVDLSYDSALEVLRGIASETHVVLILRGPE
Sequence of MAGI2_5, Q86UL8 (Q86UL8 915-1017): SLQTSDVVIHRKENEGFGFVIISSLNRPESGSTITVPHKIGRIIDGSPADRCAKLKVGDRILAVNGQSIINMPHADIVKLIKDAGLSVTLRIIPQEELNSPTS
Sequence of NHERF4_1, Q86UT5-2 (Q86UT5 other isoform, or with tags, fused parts or gaps): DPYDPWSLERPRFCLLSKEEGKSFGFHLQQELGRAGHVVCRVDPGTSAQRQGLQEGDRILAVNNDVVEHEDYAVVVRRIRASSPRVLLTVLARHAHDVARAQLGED
Sequence of Inadl_4, Q8NI35 (Q8NI35 547-651): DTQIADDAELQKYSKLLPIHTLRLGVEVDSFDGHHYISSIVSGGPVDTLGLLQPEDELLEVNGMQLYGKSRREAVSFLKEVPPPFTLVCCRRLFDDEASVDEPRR
Sequence of ARHGEF12, Q9NZN5-2 (Q9NZN5 other isoform, or with tags, fused parts or gaps): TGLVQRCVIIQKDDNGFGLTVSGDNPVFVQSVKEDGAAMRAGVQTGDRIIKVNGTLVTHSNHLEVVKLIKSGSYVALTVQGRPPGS
Sequence of Inadl_3, Q8NI35 (Q8NI35 359-469): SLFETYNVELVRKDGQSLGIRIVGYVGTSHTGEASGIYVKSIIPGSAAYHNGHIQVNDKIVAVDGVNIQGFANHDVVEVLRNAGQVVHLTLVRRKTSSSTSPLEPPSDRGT
Sequence of DLG2_2, Q15700 (Q15700 189-283): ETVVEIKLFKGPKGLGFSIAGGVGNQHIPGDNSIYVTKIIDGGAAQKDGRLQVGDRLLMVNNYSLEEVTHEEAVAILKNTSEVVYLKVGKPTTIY
Sequence of Inadl_9, Q8NI35 (Q8NI35 1530-1615): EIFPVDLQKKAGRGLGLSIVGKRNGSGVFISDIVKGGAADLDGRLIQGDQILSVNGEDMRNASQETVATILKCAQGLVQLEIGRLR
Sequence of TJP1_2, Q07157 (Q07157 181-274): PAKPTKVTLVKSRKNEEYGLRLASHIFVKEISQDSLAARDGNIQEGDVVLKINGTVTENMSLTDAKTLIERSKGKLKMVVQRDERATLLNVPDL

Take KSGKQTMLVV [TRIM29, Q14134;Q14134-2]: the pKd entry with HTRA3, P83110 is “below the threshold”; in the experiment with HTRA4, P83105, 4.14; with IL16_1, Q14005 it was “below the threshold”; with Inadl_3, Q8NI35, “below the threshold”; in the experiment with LNX2_3, Q8N448, “below the threshold”; in the experiment with MAGI2_5, Q86UL8, “below the threshold”. Besides, the pKd entry is listed as “below the threshold” with MAST1, Q9Y2H9; “below the threshold” with MPP7, Q5T2T1; “below the threshold” with NHERF2_2, Q15599; “below the threshold” in the experiment with NOS1, P29475; “below the threshold” with PARD3B_1, Q8TEW8; “below the threshold” with PARD3_3, Q8TEW0. Also, the pKd entry with PCLO, Q9Y6V0 is reported as “below the threshold”; with SCRIB_2, Q14160, “below the threshold”; in the experiment with SIPA1L2, Q9P2F8 it was “below the threshold”; in the experiment with SNTG2, Q9NY99, “below the threshold”; with SYNJ2BP, P57105 it was “below the threshold”.
Take LPAHHNATRL [SLC34A1, Q06495;Q06495-1]: the pKd was 4.11 with ARHGEF11, O15085; 4.44 with ARHGEF12, Q9NZN5-2; “below the threshold” with DLG2_2, Q15700; “below the threshold” in the experiment with HTRA3, P83110; 3.96 in the experiment with HTRA4, P83105; “below the threshold” with IL16_1, Q14005. For the same molecule, the pKd entry with Inadl_3, Q8NI35 was “below the threshold”; in the experiment with Inadl_4, Q8NI35 it was “below the threshold”; with Inadl_9, Q8NI35, “below the threshold”; in the experiment with LNX2_3, Q8N448, “below the threshold”; with MAST1, Q9Y2H9 it was 4.84; with MPP7, Q5T2T1, “below the threshold”. Besides, the pKd is 4.83 in the experiment with NHERF2_2, Q15599; 4.01 in the experiment with NHERF4_1, Q86UT5-2; 4.09 with NOS1, P29475; 4.62 in the experiment with PARD3B_1, Q8TEW8; “below the threshold” with PARD3_3, Q8TEW0; “below the threshold” with PCLO, Q9Y6V0. Besides, the negative logarithm of the Kd (pKd) result with SCRIB_2, Q14160 was “below the threshold”; with SIPA1L2, Q9P2F8, “below the threshold”; with SNTG1, Q9NSN8, “below the threshold”; in the experiment with SNTG2, Q9NY99, 4.15; with SYNJ2BP, P57105, “below the threshold”; with TJP1_2, Q07157, “below the threshold”.
With VYPNAKVELV [PDLIM4_iso2, P50479;P50479-1], the pKd entry with ARHGEF11, O15085 is “below the threshold”; in the experiment with ARHGEF12, Q9NZN5-2 it was “below the threshold”; with DLG2_2, Q15700, “below the threshold”; in the experiment with HTRA4, P83105, 4.55; with IL16_1, Q14005 it was “below the threshold”; with Inadl_4, Q8NI35 it was “below the threshold”. The pKd entry in the experiment with LNX2_3, Q8N448 is “below the threshold”; with MAGI2_5, Q86UL8, “below the threshold”; in the experiment with MAST1, Q9Y2H9, “below the threshold”; with MPP7, Q5T2T1 it was “below the threshold”; with NHERF2_2, Q15599, “below the threshold”; in the experiment with NHERF4_1, Q86UT5-2, 3.98. In addition, the pKd with NOS1, P29475 was 4.05; with PARD3_3, Q8TEW0, “below the threshold”; with PCLO, Q9Y6V0, “below the threshold”; with SCRIB_2, Q14160, “below the threshold”; with SIPA1L2, Q9P2F8, “below the threshold”; with SNTA1, Q13424, “below the threshold”. In addition, the pKd entry was “below the threshold” with SNTG1, Q9NSN8 and “below the threshold” with SYNJ2BP, P57105.

The values are drawn from article PMC9482650, “Quantitative fragmentomics allow affinity mapping of interactomes” (Nature Communications, 2022).
